# B1: TPR t1 (parent)
# chain: GACCAAUCUGCCCUCAGAGCUCGAGAACAUCUUCGGAUGCAGAGGAGGCAGGCUUCGGUGGCGCGAUAGCGCCAACGUCCUCAACCUCCAAUGCAUCCCACCACAUGAUGAUGCCUGAAGAGCCUUGGUUUUUUG
# Variants of: B1
# Assay: polymerase ribozyme fitness, log enrichment relative to wild type (log ratio); higher = more active; in vitro selection for triplet polymerase activity
# How it was run: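 Both subunits of a heterodimeric triplet polymerase ribozyme were given their own mutant library, built by PCR and transcribed. Each library was annealed with a biotinylated primer, the partner subunit and triplets, incubated frozen at −7 °C, and its extended constructs gel-excised, captured on streptavidin beads and amplified by RT-PCR, all in one round done in triplicate. Fitness is the logarithm of genotype enrichment relative to wild-type enrichment, with replicates averaged by inverse-variance weighting. That logarithm is base 2, and Illumina-sequenced genotypes needed ≥10 input reads and ≥1 read per output.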
row,Variant,polymerase ribozyme fitness (log ratio)
1,C62G A121U,0.647
2,G60A C64A C80U C97A C115A U125A U126G,-7.2
3,G60A C114A A121G,-0.404
4,G61U G113U,-1.12
5,G61A A111G,0.971
6,G61U C72U,-0.409
7,G61C A103C U109G,-5.79
8,C62U C72U U92C U96C,-2.18
9,G61A U81A,-0.273
10,G60A G113A,-0.894
11,G60A G113U,-1.94
12,G60U G77C C89U U132A,-0.345
13,G60A G128A,-2.27
14,G60U U92C U106C G107A U112C,-6.06
15,G61A U78C C86A A95C,-1.85
16,C62G C94U,-1.28
17,C62G G117A U129G,-6
18,G60C U109G,-5.41
19,G60A C85U U106G,-3.68
20,C62A C97U U106A,-1.52
21,G61A U112C G127C,0.55
22,C62A C101U C114U C124A,-3.63
23,G61U C102G G120C,-6.46
24,G61A A68G,-2.69

row,Variant,polymerase ribozyme fitness (log ratio)
1,G60C C79G G122A,-2.36
2,G61A G63A,-4.85
3,G61C G120C,-1.04
4,C62U A111U,-2.55
5,G61A A74U G110U A118G,-4.67
6,G61A U92G G113U,-4.27
7,G60C A95G,0.473
8,G60A G93A A121U,1.81
9,G61U A66U U112A,0.256
10,G61U C89G,-1.53
11,G60A C123A,0.222
12,G60U C101U A111C,0.104
13,G60A C99U G110U U130A,-5.82
14,G60A G120U,0.305
15,G60C C76U,-3.93
16,G60C G61C C73G C101G A111U G113C C123U U125G U126G,-7.1
17,G61U C88U,-0.259
18,G61U G107A U112C G122A,-5.04
19,C62A C97U,-1.52
20,G61C G77U U112A,-2.37
21,C62U C89A C124A,0.0858
22,G60U G110C,-2.76
23,G61A C88U C89A,-1.82
24,G60U G65U A121C,-6.44

row,Variant,polymerase ribozyme fitness (log ratio)
1,G60U G135U,-0.871
2,G60U G135C,0.0909
3,C62U C82U,1.12
4,G61U U133A,-0.172
5,U59C U130C,-0.123
6,G60C A83C,-0.586
7,G60C A83G,-1.24
8,G60U C94G G110C G117A,-7.56
9,U59G C88G,-2.09
10,G60C C73U U130G,-0.603
11,G61A G93A A105G G122A,-5.32
12,G61A G113C,-1.78
13,G61U G93A,0.0678
14,G61U U81G C86U G120U U133A,-4.06
15,G60U C124A,1.7
16,G61A C79U C88A U129G,-1.53
17,G60C G113C,-2.72
18,G61C G65A C82U,-7.8
19,G61A U133G,-0.781
20,G60A G135C,0.136
21,G60C A84C,-0.975
22,C62A C79A G117C,-6
23,G60C G128C,-2.73
24,G60U A121U C124A U131G,-3.49

row,Variant,polymerase ribozyme fitness (log ratio)
1,G60C A84U U116C,-0.854
2,G61A G127U,-1.35
3,G61A G127A,-2.37
4,G61C A84U G93C G128A,-5.12
5,U59G G61U,-0.648
6,G61A G69C,-3.18
7,C62A A90G,-0.841
8,C62A U132A,-0.682
9,C62A U132C,-0.866
10,G60C C98G,-6.74
11,U59G A74G,-0.396
12,G60C G127A,-1.59
13,G61A A74C,-1.86
14,G61U A91U,-1.05
15,G60A C79U,0.344
16,G61A G93U,-0.737
17,G61U U78G C79U G122U,0.33
18,G61C C88A,-2.91
19,G60U U116C,0.0833
20,G60U C102U U116A,-4.78
21,G61C U78G U130G,-4.62
22,G60U C89U U92A A118U,-2.14
23,G61U C79A C99A G120C,-6.8
24,G60C U78A,-0.111

row,Variant,polymerase ribozyme fitness (log ratio)
1,G61A G120A C123U,1.5
2,G61C C97A,-4.3
3,G60A C88U G122A,-2.19
4,G61A A121U,2.32
5,G60C C104U U126A,-1.46
6,C62U A68G C99U U133G,-6.26
7,G61U U116A,-3.38
8,C62A C104A A119U,-3.63
9,G61A A95U A119U G120C C123A,1.22
10,G60A G61U U96G,-2.55
11,C62G U129A,-3.98
12,G60C A111U U116C,-5.57
13,G61C C102U,-3.06
14,G61A U92A,-2.76
15,G60A C82U U109G,-5.13
16,G61U U87G U106A,-0.129
17,G61U U131C,0.233
18,G60A U78C,-0.393
19,G61U C104U A108C A121U,-2.95
20,C62U C73U,-0.0195
21,G60A G69U C72U C86G A118U U129A,-5.04
22,G61A A74C G120U,-2.24
23,U59G C102A,-1.41
24,C62A G110C,-5.17

row,Variant,polymerase ribozyme fitness (log ratio)
1,C62A G110U,-2.92
2,G61C A111G U116G C124A U131G,-3.87
3,G60A G93U U112C G113U,-5.49
4,C62U A95U,-2.57
5,C62U C76U,-0.133
6,U59C U87A U112C,0.815
7,G61U U87A,-0.452
8,G60U G61A U106C G128A U130A,-4.75
9,G61U G69U G120A,0.591
10,G61C C114G,-4.27
11,U59G G60A C85A,-2.54
12,U59G C86U A95U C115A C123U,-2.76
13,C62G G93A,-1.76
14,C62G G93U,-2.74
15,G61A C97A C124U,-3.09
16,G60A G61U G127C,-5.15
17,G60A C94A,-2.04
18,G61U C70U,-2.03
19,G60U G63U G113U G117U,-5.19
20,G60C U87A C101U G117A U132A,-1.89
21,G60U C82U G110U,-1.72
22,G61A U87G,0.506
23,G61U C72U U131A,-0.274
24,G60A G69A U87A,-3.78

row,Variant,polymerase ribozyme fitness (log ratio)
1,G60A A90U,-1.06
2,G60C C85U U96A U106C A119U,-4.09
3,G60U A111G U126A,-1.33
4,G60U C123A,0.751
5,G61A C79A C114A,-3.21
6,C62A A74C,-2.68
7,C62A U125G,-1.43
8,G61C U92C,-2.59
9,G61U A111C,-0.083
10,G61U A111G,0.628
11,G61C A84C,-1.86
12,G61C C79A C80U,-4.17
13,C62U A84C G117C C124A,-2.09
14,G60A U106A,-0.15
15,G60A U106G,-0.897
16,C62G A95U,-2.37
17,G61A A74C C79A U131G,-1.98
18,G60C A66G C82A,-1.84
19,C62A C98U C123A,-2.16
20,C62U C98G,-5.88
21,G61A U112C,1.57
22,G60C C99U G117A U133G,-6.01
23,C62A C72U A75C C85A U129C,-2.55

# From the RNAGym collection of RNA variant scans (doi:10.1073/pnas.2313332121)
